These results are taken from PMC10505908.

The target in data set [1] is T1, HMCES SRAP E127A E127A (human) (UniProt Q96FZ2).
T1 sequence: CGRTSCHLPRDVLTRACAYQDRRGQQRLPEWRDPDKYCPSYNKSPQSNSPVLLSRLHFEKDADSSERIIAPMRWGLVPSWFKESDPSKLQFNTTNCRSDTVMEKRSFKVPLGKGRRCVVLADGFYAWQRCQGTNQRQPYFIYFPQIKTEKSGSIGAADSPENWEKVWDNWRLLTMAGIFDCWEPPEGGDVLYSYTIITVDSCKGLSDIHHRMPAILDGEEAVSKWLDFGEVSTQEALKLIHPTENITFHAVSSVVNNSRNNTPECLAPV
Description: covalent DPC formation, SDS-PAGE. As to conditions: N15 = AP site from dU by UDG.

In data set [2] the target is T2, HMCES SRAP R98E R98E (human) (UniProt Q96FZ2).
T2 sequence: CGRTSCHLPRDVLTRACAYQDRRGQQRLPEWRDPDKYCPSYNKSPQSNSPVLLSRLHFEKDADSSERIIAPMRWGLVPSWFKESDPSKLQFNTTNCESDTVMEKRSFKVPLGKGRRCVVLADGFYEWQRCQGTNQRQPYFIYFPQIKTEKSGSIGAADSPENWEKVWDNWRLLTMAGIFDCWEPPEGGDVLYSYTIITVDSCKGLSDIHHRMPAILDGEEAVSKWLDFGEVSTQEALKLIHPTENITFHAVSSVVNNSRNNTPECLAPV
Description: covalent DPC formation, SDS-PAGE. Particulars: N15 = AP site from dU by UDG.

The target in a further data set is T3, HMCES SRAP E127A (human, UniProt Q96FZ2 2-270, E127A).
T3 sequence: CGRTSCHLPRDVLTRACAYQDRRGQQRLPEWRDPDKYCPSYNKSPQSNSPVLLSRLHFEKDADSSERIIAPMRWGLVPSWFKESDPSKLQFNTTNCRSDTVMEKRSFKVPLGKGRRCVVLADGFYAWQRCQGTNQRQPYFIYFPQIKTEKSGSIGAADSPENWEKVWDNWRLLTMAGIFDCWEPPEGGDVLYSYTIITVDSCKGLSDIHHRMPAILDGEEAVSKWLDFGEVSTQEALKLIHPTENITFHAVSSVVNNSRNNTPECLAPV
Description: fluorescence polarization.

“CCCAAAAAAAAAAANAAAAAAAAAAAACCC / GGGTTTTTTTTTTTTATTTTTTTTTTTGGG [30mer AP site dsDNA]”: the binding signal (fraction crosslinked) in data set [1] and in data set [2] was 0 throughout.
On to CCCAAAAAAAAAAATAAAAAAAAAAAACCC (ssDNA) [30mer dT-oligonucleotide], for which the binding result in the data set with HMCES SRAP E127A is reported as “binds”.
